To fix the notation:
B1: Ab 21 (scFv, V domains shown)
VH: QVQLVQSGGGLVQPGGSLRLSCATSGFTFDDYAMHWVRQAPGKGLEWVSGISWNSGSIGYVDSVKGRFTISRDNRNNKVYLQMNNLRAEDTAVYYCARDWWGSIDHWGLGTLVTVSS
VL: QSALTQPRSVSGSPGQSVTISCTGTSSDVGGYDYVSWYQQHPGKAPKLIIYDVSKRPSGVPDRFSGSKSGNTASLTVSGLQAEDEADYYCSSYTSSSPVVFGGGTKLTVL
B2: RBD-R3-T1-H3 (Ab_2) (scFv, V domains shown)
VH: EVQLVQSGAEVKKPGSSVKVSCKTSGYTFTTSGISWVRQAPGQGLEWMGWISAYNGNTNYAQKLQGRVTMTTDTSTSTAYMELRSLRSDDTAVYYCARDFHLYYGMDVWGKGTLVTVSS
VL: QSALTQPPSASGSPGQSVTISCTGTSSDVGAYNYVSWYQQHPGKAPKLLIYDVTKRPPGVPDRFSGSKSGNTASLTVSGLQAEDEADYYCAVWDDGLNGRVVFGGGTKLTVL
B3: S1-R3-T1-C4 (Ab_8) (scFv, V domains shown)
VH: QVQLVQSGAEVKKPGSSVKVSCKASGGTFSSYAISWLRQAPGQGLEWMGWINPNSGGTNYAQKFQGRVTMTRDTSISTAYMELSRLRSDDTAVYYCARGSGGYYLGWGQGTLVTVSS
VL: QPGLTQPPSVSKGLRQTATLTCTGNSNNVGNQGAAWLQQHQGHPPKLLSYMNNNRPPGISERFSASRSGNTASLTITGLQPEDEADYYCSAWDSSLSRWVFGGGTKLSVL
B4: Ab_17 (scFv, V domains shown)
VH: QVQLVQSGGGVVQPGRSLRLSCAASGFTFDDYAMHWVRQVPGKGLEWVSGIDWNSGVIGYADSVKGRFTISRDNVKNSLYLQMNSLRTEDSALYYCAKDIGPGGSGSYYAFDIWGQGTTVTVSS
VL: QSALTQPASVSGSPGQSITISCTGTSSDVGGSKYVSWYQQHPGKAPKVMIYDVTKRPSGVPDRFSGSKSGNTASLTISGLQAEDEADYYCAAWDDSLNGVVFGGGTKLTVL
B5: Ab 20 (scFv, V domains shown)
VH: QVQLVQSGGGSVKPGGSLRLSCAASGYRLSDYYMHWVRQAPGKGLEWVANIKQDGSEKYYVDSVKGRFTISRDNAKNSLYLQMNSLRAEDTAVYYCARVRGWSRGYFDYWGQGTLVTVSS
VL: NFMLTQPHSVSESPGKTVTISCTGSSGSIASNYVQWYQQRPGSAPTTVIYEDNQRPSGVPDRFSGSIDSSSNSASLLISGLKTEDEADYYCQSYDSSNHWVFGGGTKLTVL
B6: Ab 25 (scFv, V domains shown)
VH: QVQLVQSGGGLVQPGGSLRLSCAASGFTFSSYWMSWVRQAPGKGLEWVANIKQDGSEKYYVDSVKGRFTISRDNAKNSLYLQMNSLRAEDTAVYYCARGFYYYGAFDIWGQGTTVTVSS
VL: NFMLTQPHSVSESPGKTVTISCTGSSGSIASNYVQWYQQRPGSAPTTVIYEDNQRPSGVPDRFSGSIGSSSNSASLTISGLKTEDEADYYCQSYDSSNHWVFGGGTKLTVL
B7: Ab 28 (scFv, V domains shown)
VH: QVTLKESGPGLVNPSETLSLTCTVSGASISNSFWSWIRQSPGKGLEWIGYTSYSGNSIYNPSLKSRLTMSIDTSKNQLSLNLRSLTAADTAVYYCARREWIKGHFDYWGQGTLVTVSS
VL: NFMLTQPHSVSESPGKTVTISCTGSGGSIASNYVQWYQQRPGSAPTTVIYEDNQRPSGVPDRFSGSIDSSSNSASLTISGLKTEDEADYYCQSYDSSNPVVFGGGTKLTVL
B8: S1-RBD-R3-T1-F5 (Ab2-7) (scFv, V domains shown)
VH: QVTLKESGPTRVKPTQTLTLTCTFSGFSLSTTGVGVGWIRQPPGKALEWLALIYWNDDKRYSPSLKSRLTITKDTSKNQVVLTMTNMDPVDTATYYCARISGSGYFYPFDIWGQGTTVTVSS
VL: NFMLTQPHSVSESPGKTVTISCTRSSGSIASNYVQWYQQRPGSSPTTVIYEDNQRPSGVPDRFSGSIDSSSNSASLTISGLKAEDEADYYCQSYDSSSLWVFGGGTKLTVL
B9: S1-RBD-R3-T1-B12 Ab (Ab_31) (scFv, V domains shown)
VH: QVQLVQSGAEVKKPGSSVKVSCKASGGTFSSYTISWVRQAPGQGLEWMGGIIPILGTPNYAQKFQDRVAITADKSTSTAYMELSSLRSEDTAVYYCAVGSGWYSGFDYWGQGTLVTVSS
VL: NFMLTQPHSVSESPGKTVTISCTGSSGSIASNYVQWYQQRPGSAPTTVIYEDSQRPSGVPDRFSGSIDSSSNSASLTISGLKTEDEADYYCQSFHNSNPVIFGGGTKLTVL
B10: Ab_13 (scFv, V domains shown)
VH: QVTLKESGPKLVKPTQTLTLTCTFSGFSLSTSGVGVGWIRQPPGKALEWLALIYWDDDKRYSPSLKSRLTIAKDTSKYQVVLTMTNMDPVDTATYYCARISGSGYFYPFDIWGQGTMVTVSA
VL: NFMLTQPHSVSESPGKTVTISCTRSSGSIASNYVQWYQQRPGSAPTTVIYEDNQRPSGVPDRFSGSIDSSSNSASLTISGLKTEDEADYYCQSYDSSNLWVFGGGTKLTVL
B11: Ab_18 (scFv, V domains shown)
VH: EVQLVQSGGGVVQPGRSLRVSCAASGFSFSRYGMHWVRQAPGKGLEWVAFIRHDGSKKYYADSVEGRFTISRDNSRNTVSLEMNSLRGEDTAVYYCAKDGRLEAALDDWGQGTLVTVSS
VL: NFMLTQPHSMSGSAGKTVTVSCIRSSGSIANNFVQWYQQRPGSAPTTVIYEDNQRPSGVPDRFSGSIDSSSNSASLTISGLKTEDEADYYCQSYDSSNLVFGGGTRLTVL
B12: Ab_14 (scFv, V domains shown)
VH: QVQLQQSGPGLVKPSQTLSLTCAISGDSVSSNSAAWNWIRQSPARGLEWLGRTYYRSRWYNDYAISMKSRITINPDTSKNQFSLQLESVTPEDTAVYYCAREIRGFDYWGQGTLVTVSS
VL: QSVLTQPPSASGSPGQSVTISCTGTSSDVGAYNFVSWYQHHPGKAPKLIIYDFNKRPSGVPDRFSGSKSGNTASLTVSGLQADDEADYYCSSYAGSNNFDVVFGGGTKLTVL
B13: RBD-R3-E1-A5 Ab (Ab_30) (scFv, V domains shown)
VH: QVQLVQSGGGVVQPGKSLRLSCTASGFTFSDFPIHWVRQAPGKGLEWVGVISYDGNIKYYGDSVKGRFTISRDNAKNSLYLQMNSLRVEDTAVYYCARGGSSFDIWGQGTTVTVSS
VL: SYELTQPPSVSEAPRQRVTISCSGSTSNIGNNAVSWYQHLPGKAPKLLIYYNERLPSGVSDRFSGSKSGTSASLAISGLRSEDEADYYCAAWDDSLSGHVVFGGGTKLTVL
B14: S1-RBD-R3-T1-D7 Ab (Ab_34) (scFv, V domains shown)
VH: QVQLVQSGVEVKKPGESLKISCKGSGYSFTSYWIGWVRQMPGKGLEWMGIIYPGDSDTRYSPSFQGQVTISADKSISTAYLQWSSLKASDTAMYYCARTTYSYGSFDYWGQGTLVTVSS
VL: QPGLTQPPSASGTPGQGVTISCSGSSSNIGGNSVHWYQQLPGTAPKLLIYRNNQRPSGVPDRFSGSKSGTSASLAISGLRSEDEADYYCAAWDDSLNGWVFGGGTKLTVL
B15: Ab_16 (scFv, V domains shown)
VH: QVQLVQSGGGVVQPGRSLRLSCAASGFTFSNYGMHWVRQAPGKGLEWVALIWERGSKKDYADSVKGRFTVSRDNSKNTLYLQMNSLRPEDTAVYFCAREGISMTGAEYFQHWGQGTLVTVSS
VL: QSVLTQPPSVSGSPGQRVTMSCTGSSSNIGAGYDVHWYQQVPGAAPRLLIYGTNNRPSGVPDRFSGSKSGTSASLTITGLQAEDEADYYCQSYDNSLTDPYVFGTGTKVTVL
B16: Ab 23 (scFv, V domains shown)
VH: EVQLVQSGAEVKKPGSSVKVSCRSSGGTFSTYGITWVRQAPGQGLEWMGRIIPSLGIPNYAQKFQGRVTITADTSVSTAWMELSSLESDDTAIYYCARENIDLATNDFWGQGTLVTVSS
VL: QSALTQPPSASGSPGQSVTISCTGTSRDIGAYGYVSWYQQVPGKAPKLIIYEVRNRPSGVSSRFSGSKSGNTASLTISGLQAEDEADYYCSSYTSSSTLDVVFGGGTKLTVL
B17: Ab 27 (scFv, V domains shown)
VH: QVQLVQSGTEVKKPGASVKVSCKASGYSFTGSHLHWVRQAPGQGLEWMGWINPDSGVINYAQKFQGRVTLTRDTSISTAYMELSGLRSDDTAVYYCARDKAIGYVWALDYWGQGTLVTVSS
VL: QSALTQPPSVSGSPGQSVTISCTGTSSDVGTYNRVSWYQQPPGKAPKLMIYEVSNRPSGVSNRFSGSKSGNTASLTISGLQAEDEADYYCSSYTRTFTYVFGTGTKVTVL
B18: RBD-R3-E1-B3 Ab (Ab_32) (scFv, V domains shown)
VH: QVQLVQSGAEVKKPGESLKISCKGSGYSFTSYWIGWVRQMPGKGLEWMGIIYPGDSDTRYSPSFQGQVTISADKSISTAYLQWSSLKASDTAMYYCARGWQWHDYWGQGTLVTVSS
VL: QTVVTQEPAVSVALGQTVRITCQGDSLRSYYASWYQQKPGQAPVLVVYDKDKRPSGIPDRFSGSTSGNTASLTITGAQAEDEADYYCNSRDRSDNHVVFGGGTKLTVL
B19: Ab_19 (scFv, V domains shown)
VH: EVQLVESGAEVKKPGESLKISCKGSGYSFTSYWIGWVRQMPGKGLEWMGIIYPGDSDTRYSPSFQGQVTISADKSISTAYLQWSSLKASDTAMYYCARRGDLDAFDIWGQGTMVTVSS
VL: QPGLTQPPAASGTPGQRVTVSCSGASANIGSNAVSWFKQFPETAPRLLISGNTHRPSGVPDRVSGSKSGTSASLTISGLQSDDEADYYCAAWDDSLNGYVFGSGTKVTVL
B20: S1-RBD-R3-T1-C7 Ab (Ab 29) (scFv, V domains shown)
VH: QVQLQQSGPGLVKPSQTLSLTCAISGDSVSSYSDAWNWIRQSPSRGLEWLGRTYYRSKWYNDYAVSVKSRITINPDTSKNQFSLQLSSVTPEDTAVYYCAREIVATTPFRNYYYGMDVWGQGTTVTVSS
VL: NFMLTQPHSVSESPGNTVTISCTRTSGSIASNYVQWYQQRPGSSPTTVIFQDKLRPSGVPDRFSGSIDSSSNSASLTISGLKTEDEADYYCQSYDSSSLWVFGGGTKLTVL
B21: Ab 26 (scFv, V domains shown)
VH: QVQLVQSGGGLVQPGRSLRLSCAASGFTFDDYAMHWVRQVPGKGLEWVSGIDWNSGVIGYADSVKGRFTISRDNAKNSLYLQMNSLRAEDTALYYCAKDAYSYGFLGAFDIWGQGTMVTVSS
VL: LPVLTQPPSVSVAPGQTASITCGGDNIRTKGVHWYQQKPGQAPLLVIYYASDRPSGIPERFSGSSSGNTATLTISRVEAGDEADYYCQVWDSSSDLVVFGGGTTLTVL
B22: S1-RBD-R3-T1-E2 (Ab7) (scFv, V domains shown)
VH: QVQLVQSGGGLVQPGRSLRLSCAASGFTFDDYAMHWVRQVPGKGLEWVSGIDWNSGVIGYADSVKGRFTISRDNAKNSLYLQMNSLRAEDTALYYCAKDAYSYGFLGAFDIWGQGTMVTVSS
VL: QPGLTQPPSVSVAPGQTARISCGGNNIGSKSVHWYQQKPGRAPVLVVYEDRGRPSGIPERFSGSNSGNTATLTVSRVEAGDEADYYCQVWDGDSDHYVFATGTKVSIL

This experiment has as its target WT Spike (SARS-CoV-2, UniProt P0DTC2 16-1213).
For orientation: Kd means the constant that tells how readily two partners part at equilibrium. High values mean weaker binding, low ones tighter binding. Turning to B1, the Kd turned out to be 9.25 pM.

B2 gave a Kd of 199 pM.

B3: binding was characterised by a dissociation constant (Kd) of 7.15 pM. This Kd lies about 28-fold lower than the previous one.

B4 yielded a Kd of 6.35 pM.

For B5, the Kd is 9.01 pM.

Consider B6, for which the Kd was found to be 8.9 pM.

With B7, the Kd is 8.9 pM.

B8 gave a Kd of 7.85 pM.

Regarding B9, the dissociation constant Kd is < 1 pM.

Take B10: the Kd was 8.55 pM.

In turn, B11 showed a Kd of 9.07 pM.

B12: the Kd worked out at 8.22 pM.

B13: the affinity, expressed as Kd, was 1.02 pM. Against the preceding molecule, the Kd is about 8.1-fold lower.

The molecule B14 gave a Kd of 6.58 pM.

B15 gave a Kd of 11.8 pM.

In turn, B16 yielded a dissociation constant Kd of 8.84 pM. This Kd and that of the molecule before are within 1.5-fold of each other.

For the molecule B17, the Kd is 8.78 pM.

The molecule B18 displayed a Kd of 6.32 pM.

As for B19, the Kd turned out to be 8.9 pM.

In turn, B20 showed a Kd of 149 pM.

Molecule B21 displayed a Kd of 11 pM.

Consider B22, for which the Kd amounted to 7 pM. Compared with the last molecule, the Kd is about 1.6-fold lower.

(Values after US20230374114A1 (Dana-Farber, published 2023).)
